Test results reported in PMC3546673.

Key:
[1] = molecular target: F-actin (actin filaments) (UniProt P68135); test: single filament binding assay (fluorescence microscopy); actin filaments from 1 μM G-actin with rhodamine-phalloidin (1 μM) and Alexa-488-labeled trx protein (5 μM), 22 °C, 30 min; diluted 1:50 and put on poly-L-lysine-coated coverslips
[2] = molecular target: gelsolin-capped actin filaments (UniProt P68135); test: single filament binding assay (fluorescence microscopy); gelsolin-capped actin filaments labeled with rhodamine-phalloidin, incubated with Alexa-488-conjugated trx-PT or mutant (5 μM), 22 °C, 30 min; diluted 1:50 and put on poly-L-lysine-coated coverslips

Substance: recombinant thioredoxin-phostensin (trx-PT) (natural protein)
- percent localized at the filament end [1]: 96%

Substance: trx-PT(35–165) (domain or fragment)
- percent localized at a filament end [2]: 96%

Substance: trx-PT(125–165) (domain or fragment)
- percent bound to the sides of actin filaments [1]: 98%
